Assay results published in US20220380444A1.

Target: mouse complement protein C5 (mouse) (UniProt P06684)
Assay: cell-based or functional assay

monoclonal anti-C5 antibody BB5.1, sequence (VH): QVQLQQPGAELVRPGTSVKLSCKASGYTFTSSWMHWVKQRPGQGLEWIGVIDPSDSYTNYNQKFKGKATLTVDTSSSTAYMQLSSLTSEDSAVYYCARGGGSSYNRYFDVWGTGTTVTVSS
monoclonal anti-C5 antibody BB5.1, sequence (VL): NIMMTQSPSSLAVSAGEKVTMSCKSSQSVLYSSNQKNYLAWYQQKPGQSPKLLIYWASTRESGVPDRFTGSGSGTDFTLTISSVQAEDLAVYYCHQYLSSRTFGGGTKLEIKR

Substance | 50% Inhibitory Dose, classical pathway haemolysis assay [ng/mL] | Haemolytic Units (HU), classical pathway haemolysis assay [HU]
Crovalimab (original name SKY59) (antibody) | 1860 | 1.4
monoclonal anti-C5 antibody BB5.1 | 614 | 16.3
